Values quoted from earlier work as cited in paper PMC7022251.

Target: Beclin-1 BH3 (UniProt Q14457)
Chain of UniProt Q14457 (Q14457 105-130): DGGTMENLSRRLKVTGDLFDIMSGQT

Which Kd does the source give for M11 (from UniProt P89884) here?
The Kd was 40 nM.
